Measured values taken from PMC5558965, “Cysteine-rich protein 2 accelerates actin filament cluster formation” (PLoS ONE, 2017).

Target: Actin protein (from Bovine skeletal muscle), polymerised to F-actin (bovine, UniProt P68138 1-377)
Experiment: cell-based or functional assay

B1: Cysteine-rich protein 2 (CRP2), recombinant mouse, full length, with (His)6 tag at the C-terminus (natural protein)
chain: MPVWGGGNKCGACGRTVYHAEEVQCDGRSFHRCCFLCMVCRKNLDSTTVAIHDEEIYCKSCYGKKYGPKGYGYGQGAGTLNMDRGERLGIKPESAQPHRPTTNPNTSKFAQKYGGAEKCSRCGDSVYAAEKIIGAGKPWHKNCFRCAKCGKSLESTTLTEKEGEIYCKGCYAKNFGPKGFGYGQGAGALVHAQ
SAXS decreasing ratio d (0.01 < Q < 0.016) of F-actin; F-actin:CRP2 ratio 1:0 to 1:4.6 (d 1.4 to 3.4): 3.4
